Test results reported in US20240425575A1.

What was measured:
[1] = biological target: human ANG2 protein (623-AN-025/CF, R&D) (human) (UniProt O15123); assay: cell-based or functional assay
[2] = biological target: human ANG2 protein (623-AN-025/CF, R&D) (human) (UniProt O15123); assay: flow cytometry, inhibition of human ANG2 (10 µg/mL) binding to HUVEC cells

Sequence of human ANG2 protein (623-AN-025/CF, R&D) (human) (O15123 19-496 limits assumed): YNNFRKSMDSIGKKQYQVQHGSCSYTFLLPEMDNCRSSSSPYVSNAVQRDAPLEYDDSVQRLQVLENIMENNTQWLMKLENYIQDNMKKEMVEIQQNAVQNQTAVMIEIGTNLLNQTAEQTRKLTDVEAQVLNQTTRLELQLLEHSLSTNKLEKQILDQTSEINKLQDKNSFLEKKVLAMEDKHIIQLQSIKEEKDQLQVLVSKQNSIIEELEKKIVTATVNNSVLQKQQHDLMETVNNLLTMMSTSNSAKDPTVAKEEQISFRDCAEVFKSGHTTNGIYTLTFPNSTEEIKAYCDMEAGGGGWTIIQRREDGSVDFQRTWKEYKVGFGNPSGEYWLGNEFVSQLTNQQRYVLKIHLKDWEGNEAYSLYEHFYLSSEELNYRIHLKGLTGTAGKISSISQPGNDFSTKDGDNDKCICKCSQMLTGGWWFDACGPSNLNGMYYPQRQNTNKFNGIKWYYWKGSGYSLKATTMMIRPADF

IC50 of inhibition of AKT phosphorylation of human ANG2-dependent HUVEC cells [1]: 27.3 nM | IC50 [2]: 53.9 nM
Substance: RG7716 (ATAD00534, Atagenix) (bispecific antibody)
